The record followed here is article PMC7363153.

For one assay, the target named is 1N4R Tau (human) (UniProt P10636).
Another assay addresses 1N3R Tau (human) (UniProt P10636).

On to “DNAJB1 (from UniProt P25685 1-340) (natural protein)”, for which the disaggregation of 1N4R Tau fibrils with HSC70, HSPA4 and ATP: Tau shifted to the supernatant fraction (centrifugation, immunoblot) with 1N4R Tau (human) was determined as 26%. Besides, in the assay with 1N3R Tau (human), the disaggregation of 1N3R Tau fibrils with HSC70, HSPA4 and ATP: Tau shifted to the supernatant fraction (centrifugation, immunoblot) is 50%.

“DNAJB4 (from UniProt Q9UDY4 1-337) (natural protein)”: the disaggregation of 1N4R Tau fibrils with HSC70, HSPA4 and ATP: Tau shifted to the supernatant fraction (centrifugation, immunoblot) with 1N4R Tau (human) was found to be 36%. For the same substance, in the assay with 1N3R Tau (human), the disaggregation of 1N3R Tau fibrils with HSC70, HSPA4 and ATP: Tau shifted to the supernatant fraction (centrifugation, immunoblot) stood at 50%.
